According to patent US20230194547A1 (Hoffmann-La Roche, published 2023):
Values belong to the binder of their own block, whether it stands above or below them.

Experiments:
[1] = molecular target: T1, human FcRn beta-2-microglobulin complex, biotinylated, coupled to streptavidin Sepharose (human, UniProt P55899 24-297; P61769 21-119, limits assumed, biotinylated (Bulk BIRA kit, Avidity)); assay: FcRn affinity chromatography, pH gradient 5.5 to 8.8; unlabelled antibody
T1 construct: Secreted complex purified from the supernatant; also called neonatal Fc receptor; human FcRn chromatography column
Method: (§1) The UV light absorption at a wavelength of 280 nm was used for detection. The column was regenerated for 10 minutes using 20% buffer B after each run.

[2] = molecular target: T1, human FcRn beta-2-microglobulin …; assay: FcRn affinity chromatography, pH gradient 5.5 to 8.8; dye-labelled antibody
Method: as §1

B2: Vedolizumab (antibody)
chain 1: not shown
chain 2: DVVMTQSPLSLPVTPGEPASISCRSSQSLAKSYGNTYLSWYLQKPGQSPQLLIYGISNRFSGVPDRFSGSGSGTDFTLKISRVEAEDVGVYYCLQGTHQPYTFGQGTKVEIKRTVAAPSVFIFPPSDEQLKSGTASVVCLLNNFYPREAKVQWKVDNALQSGNSQESVTEQDSKDSTYSLSSTLTLSKADYEKHKVYACEVTHQGLSSPVTKSFNRGEC
relative retention time on FcRn affinity column [1]: 0.33 relative to anti-Her3 antibody standard

B3: anti-human phospho tau 422 antibody, labelled with pHAb dye (antibody, human IgG1, kappa, L234A L235A)
heavy: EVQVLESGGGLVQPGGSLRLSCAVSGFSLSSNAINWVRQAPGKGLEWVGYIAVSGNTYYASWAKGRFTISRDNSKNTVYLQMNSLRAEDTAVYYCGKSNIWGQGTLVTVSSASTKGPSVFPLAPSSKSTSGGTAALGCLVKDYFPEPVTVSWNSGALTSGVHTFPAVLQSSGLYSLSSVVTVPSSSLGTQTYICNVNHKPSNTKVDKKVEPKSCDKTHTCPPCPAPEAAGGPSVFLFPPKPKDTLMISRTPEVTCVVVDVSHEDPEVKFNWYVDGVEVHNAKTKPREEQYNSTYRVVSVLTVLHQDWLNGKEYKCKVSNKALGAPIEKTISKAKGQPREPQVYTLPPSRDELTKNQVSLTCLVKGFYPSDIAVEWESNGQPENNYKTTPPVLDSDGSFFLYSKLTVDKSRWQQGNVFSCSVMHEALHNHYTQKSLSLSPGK
light: AQVMTQSPSSLSASVGDRVTITCRSSQSVRTNRLAWFQQKPGQPPKRLIYSASTLDYGVPSRFSGSGSGTEFTLTISSLQPEDFATYYCLGYFDSSADIVAFGGGTKVEIKRTVAAPSVFIFPPSDEQLKSGTASVVCLLNNFYPREAKVQWKVDNALQSGNSQESVTEQDSKDSTYSLSSTLTLSKADYEKHKVYACEVTHQGLSSPVTKSFNRGEC
modifications: pHAb dye on a sulfo DBCO-PEG4-amine linker, clicked to the azide-modified N-glycan of the Fc-region
notes: also called anti-pTau antibody; anti-human p(422)Tau antibody
relative retention time on FcRn affinity column [2]: 1.18 relative to anti-Her3 antibody standard

Continued, values first:

relative retention time on FcRn affinity column [1]: 1.42 relative to anti-Her3 antibody standard
B1: Ixekizumab (antibody)
chain 1: not shown
chain 2: DIVMTQTPLSLSVTPGQPASISCRSSRSLVHSRGNTYLHWYLQKPGQSPQLLIYKVSNRFIGVPDRFSGSGSGTDFTLKISRVEAEDVGVYYCSQSTHLPFTFGQGTKLEIKRTVAAPSVFIFPPSDEQLKSGTASVVCLLNNFYPREAKVQWKVDNALQSGNSQESVTEQDSKDSTYSLSSTLTLSKADYEKHKVYACEVTHQGLSSPVTKSFNRGEC

relative retention time on FcRn affinity column [1]: 1.13 relative to anti-Her3 antibody standard
B4: anti-human phospho tau 422 antibody (antibody, human IgG1, kappa, L234A L235A)
heavy: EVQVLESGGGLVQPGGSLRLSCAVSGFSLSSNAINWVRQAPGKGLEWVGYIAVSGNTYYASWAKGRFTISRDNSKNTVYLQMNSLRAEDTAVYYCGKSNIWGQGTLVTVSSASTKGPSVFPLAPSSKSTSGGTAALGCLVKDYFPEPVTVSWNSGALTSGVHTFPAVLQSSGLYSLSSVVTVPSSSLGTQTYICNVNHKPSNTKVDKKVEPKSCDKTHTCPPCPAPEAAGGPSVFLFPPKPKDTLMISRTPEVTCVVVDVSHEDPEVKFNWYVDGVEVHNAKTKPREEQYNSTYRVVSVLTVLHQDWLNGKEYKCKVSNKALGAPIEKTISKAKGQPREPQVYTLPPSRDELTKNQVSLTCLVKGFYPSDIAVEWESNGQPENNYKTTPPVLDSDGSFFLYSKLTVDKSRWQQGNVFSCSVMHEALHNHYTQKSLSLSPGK
light: B3 light
notes: IgG1, unlabelled; also called anti-pTau antibody; anti-human p(422)Tau antibody
